Assay results from the DeepSol protein solubility set.

Assay: soluble on expression in E. coli; label from the status in PepcDB or PDB records

Which “soluble on expression in E. coli” value does the source give for “MSLHVLTLAIARAASIDELALAANKQRELVESLMSRGVRTRFVMELIAAVNEQIIEKAFELVVPPALHDQCCLVVLGSEGRGEQILKTDQDNALIIQDGLEWHQCQPIMETLTHTLLQLGYPLCPGKVMVNNPKWVRSQSDWKRTLTDWVKAARPEQVMDIAIFADAHAVAGNRALLAPVKAHLQHLMAGQELILAEFTRPALNFSVPLTLFGNVKSSKQGIDIKQGGIFPIVHGVRALSLEHAIDANNTFDRIEALVKKRVLEQETGDNLSEAFKLFLKLRLAQQLGNQHSTNQLDFKQLDRTERDLLRHSLHVVKKFKQWLGYHYQIRDEGHHHHHH” here?
Its value is “soluble”.

Which “soluble on expression in E. coli” value does the source give for “MQTFNRERLEFALDKRGCTQTKLAELLGITARQVRNYVKDEQIPDLNELANLLEFPVHFFTNDERLPELKSQAVSFRARSRTSKRLEKQALNHSITAFLLNDWLETEFTLSQAVLPDFSDISPEEAAQELRLEWGLGNEPIPNMITLLEVKGVRVFSLSLDTKDIDAFCTWYENHPFVFLNTQKSAERSRFDAAHELGHLIRDKYSMEHSKNSEITEDEPRDIIEKEANAFASAFLMPEAALRLYRHVPITIENLLKIKRRFGVSLVALAYRMHKLGMITDRMYIHNLCPLFAKKKYRTIEPEPMEREISSALRKMLTILKNDGIGIEQIAENLNVSPKDVADLTFGLVERDLNRYRKLRLVK” here?
The value was “not soluble”.

For “MSLITLKELAKQLNVSVSTVSKALHDAKDISEGTKKRIKEAAQLYNYRPNKTALALKVNKTNTIGVIIPDILNPFFAQVLHGIEDYATEHNYDTIVCVSHDQLKKEAQSLDLLMQGRVDGFILSLSSESLAQDNFLHIDQIALNKKGLVLFDRTTDQVDCDKVVIDDKRSVYDATRILISKGKTKIAFVSNIEDLNLGQLRKEGYENALRDHGIEVNYSLNLDLTGSSDPHGLIKAFLSMQEIDGVISADNTSSLMFKSILKSERPDTNSEIPLIGFSDEKNSLLSYPRIDYIDQNAMKIGSKAAELLINRLESKDLTSKPITFEMPTEIHLYEGHHHHHH”, which “soluble on expression in E. coli” value is on record?
The value was “soluble”.

Which “soluble on expression in E. coli” value does the source give for “MRIRLFAFCLLLGGCQSQLPPLPDWQSPEGRDDPQTGRIVELRSGVTLSPQQLVARLAAAPRVIVGEKHDNPDHHAVELWLAQALGEYRAQGSLLLEMLDPGQQPRVDAVRAQLGNGKPVANLEEALDWQKGWDWTQYGPLVSWAVAQPAPLLAANLQRSEIMRIYRERPPLPGTASRRDSVRLPLLAQIRESHCGMLPDDQLPAMLAVQQQRDRRMAERLRDAPRPAMLVAGSFHARRDLGVPVHLRDLGAEKGTQVLMLVEAGQAVTTREADYAWYTPAQPDKDYCAEMKKARLEHHHHHH” here?
The value was “not soluble”.

With “MAIDNIKAYVHLSDADIEEIGRRLDQIKAEVTQSLGARDVAYIKRLIRTQRSLEAAGRFALLFAGNKKCWWLGTGLLSTAKILENLEIGHNVLHGQWDWMNDPEIHSTTWEWDIVCPSSQWMHSHNFVHHTYTNVLGMDNDVGYGILRVTRDRKWTPLHAFQPAVNTVLAAMFQWAVGYYDVELGRYLTKRADWNDTKDKFWETTNKAGRQLARDYVFYPALARKAFPQAVKANAVANLVRSVWAYSVIFCGHFPDEAETFTKEQFKNEDHNQWYLRQMLGSANFYGGKLLTIMSGNLNYQIEHHLFPDMPSNRLAEVGEKVRALCDEYDLPYNVDSFPAQLFKVQKTLLKLTLPNKYLVASPDNAPEVRSNRAFSQNPEIENQLAGGSNGSGLRTGLKLLKRLRPSIKDAILIYSGRKPRGNQQR” as the sequence, how does the “soluble on expression in E. coli” value read?
The value was “not soluble”.

Which “soluble on expression in E. coli” value does the source give for “SDKDSQGLLDSSLMASGTASRSEDEESLAGQKRASSQALGTIPKRRSSSRFIKRKKFDDELVESSLAKSSTRVKGAGGVESGRCSGSEPSSSEKKKVSKAPSTPVPPSPAPTPGLTKRVKKSKQPLQVTKDLGRWKPADDLLLINAVLQTNDLTSVHLGVKFSCRFTLREVQERWYALLYDPVISKLACQAMRQLHPEAIAAIQSKALFSKAEEQLLSKVGSSSQPTLETFQDLLHTHPDAFYLARTAKALQAHWQLMKQYYLLEDQTVQPLPKGDQVLNFSDAEDLIDDSKLKDMRDEVLEHELTVADRRQKREIRQLEQELHKWQVLVDSITGMGSPDFDNQTLAVLRGRMVRYLMRSREITLGRATKDNQIDVDLSLEGPAWKISRKQGVIKLKNNGDFFIANEGRRPIYIDGRPVLCGSKWRLSNNSVVEIASLRFVFLINQDLIALIRAEAAKITPQ” here?
The value was “soluble”.

With “FGVWVLVPRSFPRCVWFQRSMAVVIRLQGLPIVAGTMDIRHFFSGLTIPDGGVHIVGGELGEAFIVFATDEDARLGMMRTGGTIKGSKVTLLLSSKTEMQNMIELSRRRFETANLDIPPANASRSGPPPSSGMSSRVNLPTTVSNFNNPSPSVVTATTSVHESNKNIQTFSTASVGTAPPNMGASFGSPTFSSTVPSTASPMNTVPPPPIPPIPAMPSLPPMPSIPPIPVPPPVPTLPPVPPVPPIPPVPSVPPMTPLPPMSGMPPLNPPPVAPLPAGMNGSGAPMNLNNNLNPMFLGPLNPVNPIQMNSQSSVKPLPINPDDLYVSVHGMPFSAMENDVRDFFHGLRVDAVHLLKDHVGRNNGNGLVKFLSPQDTFEALKRNRMLMIQRYVEVSPATERQWVAAGGHITFKQNMGPSGQTHPPPQTLPRSKSPSGQKRSRSRSPHEAGFCVYLKGLPFEAENKHVIDFFKKLDIVEDSIYIAYGPNGKATGEGFVEFRNEADYKAALCRHKQYMGNRFIQVHPITKKGMLEKIDMIRKRLQNFSYDQREMILNPEGDVNSAKVCAHITNIPFSITKMDVLQFLEGIPVDENAVHVLVDNNGQGLGQALVQFKNEDDARKSERLHRKKLNGREAFVHVVTLEDMREIEKNPPAQGKKGLKMPVPGNPAVPGMPNAGLPGVGLPSAGLPGAGLPSTGLPGSAITSAGLPGAGMPSAGIPSAGGEEHAFLTVGSKEANNGPPFNFPGNFGGSNAFGPPIPPPGLGGGAFGDARPGMPSVGNSGLPGLGLDVPGFGGGPNNLSGPSGFGGGPQNFGNGPGSLGGPPGFGSGPPGLGSAPGHLGGPPAFGPGPGPGPGPGPIHIGGPPGFASSSGKPGPTVIKVQNMPFTVSIDEILDFFYGYQVIPGSVCLKYNEKGMPTGEAMVAFESRDEATAAVIDLNDRPIGSRKVKLVLG” as the sequence, how does the “soluble on expression in E. coli” value read?
The value was “soluble”.

For “MAHHHHHHMGRASKDKRDIYYRKAKEEGYRARSAYKLLQLHEEFGILRREEIRTGVVDLCAAPGSWSQVLSNHLCGSQPGSAAEACEGDEAINSEASQRPRIVAVDLQEMMPIDGVQLLQGDITSEWTAREIIRLLNGDSSSVPECSDATALSTAGAINDFNNGRGNNVSEEGKSSQQRSDCGVGLMNERNNASECVDGDNNNNNSNNNDDRNGGDAGASTRPVAGRKADLVVCDGAPDVTGMHELDEYLQHHLLLAALNITTFVLRRGGTFVTKMFRGPNTPFLVAKAEVFFRQVTIAKPKSSRNASMEAFMVCQNYDPPASYQPSFERPLTQTTSCFTPAAPALHLAAVDAQRMSSDNVNNGELHHSGVTDIVDEAYAVESVIVPFLACGDLTGYDADMCYDRGESDVVLPPVQPPLQAPYIAISEAVKERTKRQRVG”, which “soluble on expression in E. coli” value is on record?
The value was “not soluble”.

With “MSLMRDITPDLCDKYESQVTLLNLPLQNFGQRSAFWGEIVTVRCYHDNSKVRDVLSQNGKGKVLVVDGHGSCHKALMGDQLAILAIKNDWEGVIIYGAVRDVVAMSEMDLGIKALGTSPFKTEKRGAGQVNVTLTMQNQIVEPGDYLYADWNGILMSETALDVAEGGSHHHHHH” as the sequence, how does the “soluble on expression in E. coli” value read?
The value was “soluble”.

Which “soluble on expression in E. coli” value does the source give for “MLSRRGKMKRIKVLRNGPYLVEGSVPLYEEVIVTDEEGHTREFVERRQFPLKERYVLCRCGESGNKPYCDGTHIRTGFDGTETASLEPYIERARVFRAGDLELTDVPELCDHSRFCLRAGGIRELLRKGDRESIQIAIEEAMICPSGRLVLWDRKTGKPYERDYEKSIVVIHDKQKRCEGPLWVRGGIPIESADGREYEVRNRVTLCRCGLSENKPFCDGSHWMTAEEKLEFKRKWGIELEHHHHHH” here?
Its value is “not soluble”.

For “MKVRYLTSALLLAMTSGLAAAASVDIRHEYVPDRDGDEHRDRIYVSHRFDNQIGFSVEAKWNYKDGHMGNAGHETGVSYRWKATDNFSLTPGINIDASPSGASVFKYNLTGAYKINDEWDVAARIRHGYKNTDDSRYNQLNLYANRKFEWGKLGVEAEYKDIHGGEGGWKDKGHDQLIDFKGEYTKLESGVIPFFAIAAITHKGDGSEFKDEYVPRFRVGLKYNF”, which “soluble on expression in E. coli” value is on record?
Its value is “not soluble”.
